Data from PMC5476676.

Target: Protein L (UniProt Q51918)
Experiment: BLI

Trastuzumab wild-type (recombinant Trastuzumab model) (antibody)
koff: 1.2e-05 s⁻¹
